Consider one molecule from patent US8981179B2, “Transgenic non-human animal and uses thereof” (Sanofi, priority 2009, dated 2015).

For the assay, the target named is T1, prokineticin 2 receptor (PROK2R) (Mus musculus, UniProt Q8K458).
T1 construct: endogenous in cells; host or cells: primary cortical neurons, E18, CreLuc mouse lines (187 and others)
Briefly: Primary cortical neurons CreLuc luciferase assay, Gq modulation. It counts as cell-based. The source says: A general schematic of the workflow for the isolation and compound treatment of primary neuronal cells from the CreLuc model is depicted in FIG. 9. Cortices or other brain subregions are removed from embryos, usually embryonic (E) day 17 or 18, but also as early as E14. The individual neurons are then isolated and plated onto 96 well assay plates. Assays are run either in triplicate or quadruplicate. The assays are run from day 3 in culture up until day 7 or day 10 in culture depending on the expression levels of the target GPCR. Compounds are added to the plates then at a set timepoint, Bright Glo (Promega, Cat #E2610) is added to the plates and the assay is then run on a TopCount or other luminometer.
Primary cell cultures from the CreLuc mice may be used to screen compounds that are capable of modulating Gs coupled receptors. The PROK2R is Gq coupled, therefore, prokineticin 2 (PROK2) which is an agonist for the PROK2R was used to see whether CreLuc mice would be responsive to Gq modulation. […]
The effects of PROK2 peptide on luciferase expression in primary cortical neurons from different CreLuc lines was examined. […] Lines were selected based on earlier experiments which determined inducible luciferase levels in whole brain extracts (data not shown). […] BrightGlo was used for the assay and read on a TopCount. […]

T1 sequence (Q8K458 whole entry): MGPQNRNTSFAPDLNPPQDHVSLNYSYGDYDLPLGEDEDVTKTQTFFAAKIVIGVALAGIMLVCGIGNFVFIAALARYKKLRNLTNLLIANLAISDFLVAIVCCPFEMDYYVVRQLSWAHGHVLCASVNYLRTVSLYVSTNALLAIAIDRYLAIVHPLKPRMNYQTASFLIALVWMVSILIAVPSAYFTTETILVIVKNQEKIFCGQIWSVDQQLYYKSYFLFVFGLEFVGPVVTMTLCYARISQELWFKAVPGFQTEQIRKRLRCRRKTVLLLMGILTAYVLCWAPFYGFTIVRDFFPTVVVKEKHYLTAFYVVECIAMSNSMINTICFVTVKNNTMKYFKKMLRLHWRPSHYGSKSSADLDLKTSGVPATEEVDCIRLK

B1: PROK2: prokineticin 2 peptide (Peprotech), agonist for the PROK2R (protein)
chain: AVITGACDKDSQCGGGMCCAVSIWVKSIRICTPMGKLGDSCHPLTRKVPFFGRRMHHTCPCLPGLACLRTSFNRFICLAQK
For the molecule B1, the “luciferase levels vs media only control” value (cortical neurons line 187, day 3, 1 nM and 100 nM, 4 hours and 8 hours) is listed as “Highly significant increases”. The “luciferase levels in cortical neurons from different CreLuc lines” value (lines 219 and 175, 1 nM and 100 nM, 4 hours and 24 hours) was “Statistically significant increases”.
